Non-standard residues stand in square brackets, D forms with d. No end group written: not given here.

9 molecules from patent US20260274975A1 can be followed below.

The target in the test is Anti-Müllerian hormone Receptor 2 (AMH-R2), protein target applied to the peptide microarray (UniProt Q16671). As to the kind of experiment: peptide microarray; protein target detected by anti-GST and Alexa Fluor 647 antibody, scanned signal.
Chain of UniProt Q16671 (Q16671 18-149 limits assumed): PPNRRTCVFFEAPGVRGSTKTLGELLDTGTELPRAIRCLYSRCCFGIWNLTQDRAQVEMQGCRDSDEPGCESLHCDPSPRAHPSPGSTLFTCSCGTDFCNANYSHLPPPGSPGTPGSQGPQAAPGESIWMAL

In the case of Y[dW]G[dW]SHA[dK][dA]NQFPN[dR][dL][dA] [AMH receptor binding peptide SEQ ID NO: 3], the Average worked out at 65500, the Rep 1 worked out at 65500 and the Rep 2 is 65500.

On to [dR][dW]G[dA]SN[dK]HFAN[dA]NQ[dR][dA][dL] [NegAMHR2BP (SEQ ID NO: 4)], for which the Average worked out at 65500, the Rep 1 is 65500 and the Rep 2 was found to be 65400.

For the molecule DG[dL]GSV[dL]A[dR][dK]N[dR][dR]D[dA]V[dL] [AMH receptor binding peptide SEQ ID NO: 5], the Average was 65500, the Rep 1 came to 65400 and the Rep 2 turned out to be 65500.

In the case of NG[dR]SQAHN[dL][dR][dK][dA]GV[dA][dL]S [AMH receptor binding peptide SEQ ID NO: 15], the Average came out at 61500, the Rep 1 was determined as 62900 and the Rep 2 was determined as 60000.

GG[dR]SVSAN[dL]Q[dR]E[dR][dK]V[dA]G [AMH receptor binding peptide SEQ ID NO: 19] had an Average of 56900, a Rep 1 of 55700 and a Rep 2 of 58100.

On to G[dL]Q[dW]SFANGQ[dW][dR]G[dA][dL]SG [AMH receptor binding peptide SEQ ID NO: 12], for which the Average is 63800, the Rep 1 was determined as 64600 and the Rep 2 was 62900.

With EG[dL]QSSAYNNY[dW][dR][dK][dL]V[dA] [AMH receptor binding peptide SEQ ID NO: 17], the Average is 61200, the Rep 1 is 60200 and the Rep 2 stood at 62200.

Molecule [dK]GSNA[dR][dK]N[dR][dR]D[dA]SGV[dA][dL] [AMH receptor binding peptide SEQ ID NO: 20] registered an Average of 47900, a Rep 1 of 52300 and a Rep 2 of 43500.

Take G[dL]Y[dW]SAYNP[dW][dR]HV[dA][dL][dA]S [AMH receptor binding peptide SEQ ID NO: 18]: the Average was 59200, the Rep 1 stood at 60800 and the Rep 2 was 57500.
